In publication PMC10483886 (Molecular cell, 2023):

Biological target: T1, His-Flag-DBR1 (human, UniProt Q9UK59 1-544)
T1 sequence (looked up): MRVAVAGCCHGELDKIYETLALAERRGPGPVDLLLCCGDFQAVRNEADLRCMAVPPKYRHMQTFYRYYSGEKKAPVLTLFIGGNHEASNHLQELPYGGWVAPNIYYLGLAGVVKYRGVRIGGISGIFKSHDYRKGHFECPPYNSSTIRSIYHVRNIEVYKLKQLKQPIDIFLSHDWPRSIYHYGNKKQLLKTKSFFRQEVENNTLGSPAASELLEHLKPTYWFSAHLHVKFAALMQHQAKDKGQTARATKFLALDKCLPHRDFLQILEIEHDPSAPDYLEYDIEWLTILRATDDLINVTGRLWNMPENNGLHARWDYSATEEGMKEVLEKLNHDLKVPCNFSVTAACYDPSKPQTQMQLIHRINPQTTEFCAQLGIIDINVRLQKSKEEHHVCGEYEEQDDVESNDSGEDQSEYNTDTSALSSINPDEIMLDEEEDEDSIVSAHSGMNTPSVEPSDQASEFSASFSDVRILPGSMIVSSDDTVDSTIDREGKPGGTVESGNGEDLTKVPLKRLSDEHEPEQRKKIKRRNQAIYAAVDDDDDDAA
Experiment: pull-down

binding result: binds
B1: GST-TTDN1 (natural protein, human, UniProt Q8TAP9 1-179, looked up)
chain: MQRQNFRPPTPPYPGPGGGGWGSGSSFRGTPGGGGPRPPSPRDGYGSPHHTPPYGPRSRPYGSSHSPRHGGSFPGGRFGSPSPGGYPGSYSRSPAGSQQQFGYSPGQQQTHPQGSPRTSTPFGSGRVREKRMSNELENYFKPSMLEDPWAGLEPVSVVDISQQYSNTQTFTGKKGRYFC
